Results on 4 molecules are retold here after US20210162000A1 (INSTITUT DE CARDIOLOGIE DE MONTREAL, published 2021).

In assay [1] the target is T1, Recombinant PCSK9-His6 of the Circulex in vitro competitive binding assay (human, UniProt Q8NBP7 31-692, limits assumed).
T1 construct: also called WT PCSK9; wild-type human recombinant His-tagged PCSK9; not shown: His tag
The assay is described as follows: solid phase PCSK9-LDLR EGF-AB in vitro competitive binding assay (Circulex CY-8150), 100 ng (13.46 nM) PCSK9-His6 with increasing SEQ ID NO. 6. The procedure:
Solid phase PCSK9-LDLR epidermal growth factor precursor homology domain A and B (LDLR EGF-AB) in vitro competitive binding assay (Circulex; Cat. #CY-8150) was performed with 100 ng (13.46 nM) of recombinant PCSK9-His6 together with increasing amount of recombinant SEQ ID NO. 6 according to manufacturer's recommendations. Using this in vitro competitive assay, SEQ ID NO.

Assay [2] addresses T2, Full-length human V5-tagged PCSK9 (human, UniProt Q8NBP7 31-692, limits assumed).
T2 construct: Expressed from pIRES2-EGFP in transfected cells. proPCSK9 and mature forms were both seen in the IPs; also called PCSK9-V5; wild-type PCSK9-V5
The assay is described as follows: co-IP from transfected HEK293 cells, immunoblot. The procedure: All other Co-IP experiments were performed as described without the cross-linking step and in SDS-deprived RIPA buffer. HA-tagged proteins and GRP94 were immunoprecipitated with mouse anti-HA-tag (1:500; Cat. #H3663, Sigma-Aldrich) or rat anti-Grp94 (9G10, 1:1000; Cat. #ADI-SPA-850, Enzo Life Sciences).
We next decided to map GRP94 domain(s) important for PCSK9 protein-protein interaction. The overall domain structure of GRP94 includes a signal polypeptide (amino acids; aa1-21) followed by a N-terminal enzymatic ATP-binding domain (aa22-651), client-binding domain (CBD; aa652-678), C-terminal dimerization domain (aa679-799) and a KDEL polypeptide sequence (aa800-803) allowing retention of GRP94 in the endoplasmic reticulum. (Dollins et al., 2007; Maki et al., 1990; Wu et al., 2012) Thus, we first generated cDNA constructs encoding secretable HA-tagged forms of human GRP94 lacking its C-terminal KDEL polypeptide (SEQ ID. NO. 66; FIG. 2). HEK293 cells were transfected without or with SEQ ID. NO. 66 in absence or presence of PCSK9-V5 (FIG. 2a). […] NO. 66 is well expressed (Input; IB: HA) and secreted into media and that SEQ ID. NO. 66 interacts in complex with PCSK9 following immunoprecipitation (IP: V5; FIG. 2b). […] It was reported that a 27 aa C-terminal hydrophobic loop structure within GRP94 client-binding domain (CBD, amino acids aa652-678; ⁶⁵²[…], SEQ ID. NO. 4) was important for folding and interaction with Toll-like receptors and integrins. (Wu et al., 2012) Deletion or alanine-scan mutations in SEQ ID. NO. […] (Wu et al., 2012) Similarly, we generated two mutated constructs in which critical residues within the GRP94-CBD domain where mutated into alanine (AA1: ⁶⁵²[…], SEQ ID. NO. 78 and AA2: ⁶⁵²[…], SEQ ID. NO. 79). HEK293 cells were transfected with either an empty vector (−) or with SEQ ID. NO. 66, 64 or 65 constructs in presence or absence of PCSK9-V5 (FIG. 2b).
Background: In western blotting, separated proteins are transferred to a membrane and probed.

T2 sequence (Q8NBP7 31-692 limits assumed): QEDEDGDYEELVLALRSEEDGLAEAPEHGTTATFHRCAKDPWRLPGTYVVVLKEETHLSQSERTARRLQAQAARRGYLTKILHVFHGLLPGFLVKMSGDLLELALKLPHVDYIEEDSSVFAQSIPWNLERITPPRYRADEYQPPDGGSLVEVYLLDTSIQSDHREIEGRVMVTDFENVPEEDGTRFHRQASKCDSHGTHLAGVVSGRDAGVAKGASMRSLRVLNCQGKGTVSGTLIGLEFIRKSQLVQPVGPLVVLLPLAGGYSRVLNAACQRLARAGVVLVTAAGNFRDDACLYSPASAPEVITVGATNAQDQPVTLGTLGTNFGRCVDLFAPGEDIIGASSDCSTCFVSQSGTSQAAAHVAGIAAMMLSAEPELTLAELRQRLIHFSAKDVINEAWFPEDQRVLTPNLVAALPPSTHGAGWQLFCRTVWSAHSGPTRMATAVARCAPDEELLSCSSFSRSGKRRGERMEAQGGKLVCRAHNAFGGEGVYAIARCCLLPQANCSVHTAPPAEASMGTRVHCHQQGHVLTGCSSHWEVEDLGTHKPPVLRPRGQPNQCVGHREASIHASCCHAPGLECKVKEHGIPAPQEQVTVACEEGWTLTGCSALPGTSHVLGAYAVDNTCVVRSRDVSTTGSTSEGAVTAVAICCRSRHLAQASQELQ
T1 sequence (Q8NBP7 31-692 limits assumed): as above

B1: Recombinant SEQ ID NO 6, GRP94 CBD-CT (aa 652-799), His6 tag purified from E. coli (other)
chain: YGWSGNMERIMKAQAYQTGKDISTNYYASQKKTFEINPRHPLIRDMLRRIKEDEDDKTVLDLAVVLFETATLRSGYLLPDTKAYGDRIERMLRLSLNIDPDAKVEEEPEEEPEETAEDTTEDTEQDEDEEMDVGTDEEEETAKESTAE
notes: also called NO; 43; GRP94 CDB-CT domain; not shown: His6 tag from pET24b(+)
As a reminder, the IC50 is the midpoint of a concentration-inhibition curve. B1: the IC50 in assay [1] is around 113 nM.

B2: SEQ ID NO 64, alanine-scanning mutant of GRP94 lacking KDEL (taken as AA1) (other)
chain: DDEVDVDGTVEEDLGKSREGSRTDDEVVQREEEAIQLDGLNASQIRELREKSEKFAFQAEVNRMMKLIINSLYKNKEIFLRELISNASDALDKIRLISLTDENALSGNEELTVKIKCDKEKNLLHVTDTGVGMTREELVKNLGTIAKSGTSEFLNKMTEAQEDGQSTSELIGQFGVGFYSAFLVADKVIVTSKHNNDTQHIWESDSNEFSVIADPRGNTLGRGTTITLVLKEEASDYLELDTIKNLVKKYSQFINFPIYVWSSKTETVEEPMEEEEAAKEEKEESDDEAAVEEEEEEKKPKTKKVEKTVWDWELMNDIKPIWQRPSKEVEEDEYKAFYKSFSKESDDPMAYIHFTAEGEVTFKSILFVPTSAPRGLFDEYGSKKSDYIKLYVRRVFITDDFHDMMPKYLNFVKGVVDSDDLPLNVSRETLQQHKLLKVIRKKLVRKTLDMIKKIADDKYNDTFWKEFGTNIKLGVIEDHSNRTRLAKLLRFQSSHHPTDITSLDQYVERMKEKQDKIYFMAGSSRKEAESSPFVERLLKKGYEVIYLTEPVDEYCIQALPEFDGKRFQNVAKEGVKFDESEKTKESREAVEKEFEPLLNWMKDKALKDKIEKAVVSQRLTESPCALVASQYAASAAAAAIMKAQAYQTGKDISTNYYASQKKTFEINPRHPLIRDMLRRIKEDEDDKTVLDLAVVLFETATLRSGYLLPDTKAYGDRIERMLRLSLNIDPDAKVEEEPEEEPEETAEDTTEDTEQDEDEEMDVGTDEEEETAKESTAEYPYDVPDYA
B2: the binding result in assay [2] is recorded as “no binding”.

B3: SEQ ID NO 65, alanine-scanning mutant of GRP94 lacking KDEL (taken as AA2) (other)
chain: DDEVDVDGTVEEDLGKSREGSRTDDEVVQREEEAIQLDGLNASQIRELREKSEKFAFQAEVNRMMKLIINSLYKNKEIFLRELISNASDALDKIRLISLTDENALSGNEELTVKIKCDKEKNLLHVTDTGVGMTREELVKNLGTIAKSGTSEFLNKMTEAQEDGQSTSELIGQFGVGFYSAFLVADKVIVTSKHNNDTQHIWESDSNEFSVIADPRGNTLGRGTTITLVLKEEASDYLELDTIKNLVKKYSQFINFPIYVWSSKTETVEEPMEEEEAAKEEKEESDDEAAVEEEEEEKKPKTKKVEKTVWDWELMNDIKPIWQRPSKEVEEDEYKAFYKSFSKESDDPMAYIHFTAEGEVTFKSILFVPTSAPRGLFDEYGSKKSDYIKLYVRRVFITDDFHDMMPKYLNFVKGVVDSDDLPLNVSRETLQQHKLLKVIRKKLVRKTLDMIKKIADDKYNDTFWKEFGTNIKLGVIEDHSNRTRLAKLLRFQSSHHPTDITSLDQYVERMKEKQDKIYFMAGSSRKEAESSPFVERLLKKGYEVIYLTEPVDEYCIQALPEFDGKRFQNVAKEGVKFDESEKTKESREAVEKEFEPLLNWMKDKALKDKIEKAVVSQRLTESPCALVASQYGWSGNMERIMKAQAYATGKAISTNAAASQKKTFEINPRHPLIRDMLRRIKEDEDDKTVLDLAVVLFETATLRSGYLLPDTKAYGDRIERMLRLSLNIDPDAKVEEEPEEEPEETAEDTTEDTEQDEDEEMDVGTDEEEETAKESTAEYPYDVPDYA
For B3, the binding result in assay [2] was “no binding”.

B4: Secretable ~20 kDa HA-tagged protein containing the CBD and C-terminal domains of GRP94 (CBD-CT; SEQ ID NO 46) (other)
chain: YGWSGNMERIMKAQAYQTGKDISTNYYASQKKTFEINPRHPLIRDMLRRIKEDEDDKTVLDLAVVLFETATLRSGYLLPDTKAYGDRIERMLRLSLNIDPDAKVEEEPEEEPEETAEDTTEDTEQDEDEEMDVGTDEEEETAKESTAEYPYDVPDYA
B4: in assay [2], the binding result is given as “binds”.
